Reference: publication PMC11469336

Molecular target: ribosomes (crude ribosome pellet)
Test: co-sedimentation

For “trimeric SEC61 complex (from UniProt P61619 1-476; P60468 1-96; P60059 1-68)”, the half-time of dissociation after harringtonine (in wild-type cells) was 15 min and the half-time of dissociation after puromycin (in wild-type cells) was 1 min.
